The values below come from article PMC2173742 (The Journal of Cell Biology, 2003).

Series [1] addresses bovine Taxol-stabilized MTs (bovine) (UniProt Q6B856). Briefly: co-sedimentation.
Series [2] concerns the molecule itself. Briefly: SEC + other: velocity sedimentation.

B1: Ase1p–MYC–6xHis (natural protein, budding yeast, UniProt P50275 1-885, looked up)
chain: METATSSPLPIKSRRNSENSGSTTVIPHMNPSLATPLTVSTMVNQSNSKEFMKLTPVRIRDFGSPLKNVSTNYHFLDSENGKGNTMDNMYRENFILISKDLEKLLENLNVIYQNIGYSNTEIITKEKIIFTTISNSIKQFFEQADEELKRLSAENGIEQDILNNILERINDPSGIKTIPDLYIRNAILLQESKTVPQSPKKPLSLLSKKAALDTAKKFVLGSFLPRLRDYLKSLITLKHLIQSVKENLPGLTEADNEAIAEFPELSTLTAYLLQIENGKGDIGLSMKFIIDNRKDILKGSAFKTINEESVKHMNEVIKIYEEEYERRFKSVLTKKVSISSICEQLGTPLATLIGEDFEQDLRSYGEEENSTSEIPNFHPVDRERMSKIDITLEKLQAIHKERADKKRLLMEQCQKLWTRLKISQEYIKTFMRNNSSLSTESLGRISKEVMRLEAMKKKLIKKLISDSWDKIQELWRTLQYSEESRSKFIIVFEELRNSATTLQEDELLLETCENELKRLEEKLTLYKPILKLISDFESLQEDQEFLERSSKDSSRLLSRNSHKILLTEEKMRKRITRHFPRVINDLRIKLEEADGLFDQPFLFKGKPLSEAIDIQQQEIEAKYPRCRVRMQRSKKGKCGANKENKVIKNTFKATESSIRVPIGLNLNDANITYKTPSKKTIQGLTKNDLSQENSLARHMQGTTKLSSPNRRATRLLAPTVISRNSKGNIERPTLNRNRSSDLSSSPRINHTHGEHAVKPRQLFPIPLNKVDTKGSHIPQLTKEKALELLKRSTGTTGKENVRSPERKSSLEDYAQKLSSPYKEPEHSIYKLSMSPEGKFQLNIQQKDIESGFDDTSMMEDENDKDFITWKNEQVSKLNGFSFTDI
What is called Kd is the concentration at which binding is half-saturated. A low value points to a tighter complex. By stoichiometry N is commonly meant a count of units in the complex or per binding partner. For B1, the Kd in series [1] amounted to 300 nM. Also, the “stoichiometry N” value in series [2] turned out to be 2.
